Columns and labels:
Assay in all cases: cell-based or functional assay
[1] = target: HIV-1 Env of pseudovirus ZM135M.PL10a (HIV-1)
[2] = target: HIV-1 Env of pseudovirus SC05_8C11_2344 (HIV-1)
[3] = target: HIV-1 Env of pseudovirus CNE20 (HIV-1)
[4] = target: HIV-1 Env of pseudovirus 6244_13_B5_4576 (HIV-1)
[5] = target: HIV-1 Env of pseudovirus Du422.1 (HIV-1)
[6] = target: HIV-1 Env of pseudovirus ZM249M.PL1 (HIV-1)
[7] = target: HIV-1 Env of pseudovirus 1394C9G1(Rev-) (HIV-1)
[8] = target: HIV-1 Env of pseudovirus 1006_11_C3_1601 (HIV-1)
[9] = target: HIV-1 Env of pseudovirus WITO4160.33 (HIV-1)
[10] = target: HIV-1 Env of pseudovirus Q769.d22 (HIV-1)
[11] = target: HIV-1 Env of pseudovirus QH0692.42 (HIV-1)
[12] = target: HIV-1 Env of pseudovirus ZM214M.PL15 (HIV-1)
[13] = target: HIV-1 Env of pseudovirus MS208.A1 (HIV-1)
[14] = target: HIV-1 Env of pseudovirus PVO.4 (HIV-1)
[15] = target: HIV-1 Env of pseudovirus Ce2060_G9 (HIV-1)
[16] = target: HIV-1 Env of pseudovirus CNE30 (HIV-1)
[17] = target: HIV-1 Env of pseudovirus TRJO4551.58 (HIV-1)
[18] = target: HIV-1 Env of pseudovirus ZM197M.PB7 (HIV-1)
[19] = target: HIV-1 Env of pseudovirus BF1266.431a (HIV-1)

Question: With N49P19 (antibody) as the substance, how does the IC50 [1] read?
Answer: Its IC50 is over 50 mg/L.

Question: What about the IC80 [1] of the same substance?
Answer: The IC80 was over 50 mg/L.

Question: And the MPI [1]?
Answer: The MPI was 0.

Question: What about the IC50 [2] of the same substance?
Answer: The IC50 was 0.954 mg/L.

Question: And the IC80 [2]?
Answer: The IC80 was 3.3 mg/L.

Question: And the MPI [2]?
Answer: Its MPI is 100.

Question: What about the IC50 [3] of the same substance?
Answer: Its IC50 is 0.124 mg/L.

Question: What about the IC80 [3] of the same substance?
Answer: Its IC80 is 0.817 mg/L.

Question: And the MPI [3]?
Answer: Its MPI is 99.

Question: What about the IC50 [4] of the same substance?
Answer: Its IC50 is 0.571 mg/L.

Question: And the IC80 [4]?
Answer: The IC80 was 1.82 mg/L.

Question: And the MPI [4]?
Answer: The MPI was 100.

Question: What about the IC50 [5] of the same substance?
Answer: Its IC50 is over 50 mg/L.

Question: And the IC80 [5]?
Answer: Its IC80 is over 50 mg/L.

Question: And the MPI [5]?
Answer: Its MPI is 30.

Question: And the IC50 [6]?
Answer: Its IC50 is over 50 mg/L.

Question: And the IC80 [6]?
Answer: The IC80 was over 50 mg/L.

Question: And the MPI [6]?
Answer: Its MPI is 33.

Question: And the IC50 [7]?
Answer: Its IC50 is over 50 mg/L.

Question: What about the IC80 [7] of the same substance?
Answer: Its IC80 is over 50 mg/L.

Question: And the MPI [7]?
Answer: Its MPI is 17.

Question: What about the IC50 [8] of the same substance?
Answer: Its IC50 is 0.4 mg/L.

Question: And the IC80 [8]?
Answer: Its IC80 is 1.33 mg/L.

Question: And the MPI [8]?
Answer: Its MPI is 100.

Question: And the IC50 [9]?
Answer: Its IC50 is 0.263 mg/L.

Question: And the IC80 [9]?
Answer: The IC80 was 1.29 mg/L.

Question: And the MPI [9]?
Answer: The MPI was 100.

Question: And the IC50 [10]?
Answer: The IC50 was 0.14 mg/L.

Question: What about the IC80 [10] of the same substance?
Answer: Its IC80 is 0.519 mg/L.

Question: And the MPI [10]?
Answer: Its MPI is 100.

Question: What about the IC50 [11] of the same substance?
Answer: The IC50 was 2.56 mg/L.

Question: And the IC80 [11]?
Answer: The IC80 was 13.4 mg/L.

Question: What about the MPI [11] of the same substance?
Answer: Its MPI is 98.

Question: What about the IC50 [12] of the same substance?
Answer: The IC50 was 1.85 mg/L.

Question: And the IC80 [12]?
Answer: Its IC80 is 14.8 mg/L.

Question: And the MPI [12]?
Answer: The MPI was 98.

Question: And the IC50 [13]?
Answer: The IC50 was 0.501 mg/L.

Question: And the IC80 [13]?
Answer: The IC80 was 1.99 mg/L.

Question: And the MPI [13]?
Answer: Its MPI is 99.

Question: What about the IC50 [14] of the same substance?
Answer: Its IC50 is 0.85 mg/L.

Question: And the IC80 [14]?
Answer: Its IC80 is 2.95 mg/L.

Question: And the MPI [14]?
Answer: The MPI was 100.

Question: And the IC50 [15]?
Answer: The IC50 was 1.06 mg/L.

Question: And the IC80 [15]?
Answer: The IC80 was 5.62 mg/L.

Question: And the MPI [15]?
Answer: Its MPI is 98.

Question: And the IC50 [16]?
Answer: The IC50 was 1.27 mg/L.

Question: What about the IC80 [16] of the same substance?
Answer: The IC80 was 4.28 mg/L.

Question: What about the MPI [16] of the same substance?
Answer: Its MPI is 100.

Question: What about the IC50 [17] of the same substance?
Answer: Its IC50 is 1.23 mg/L.

Question: And the IC80 [17]?
Answer: Its IC80 is 5.4 mg/L.

Question: What about the MPI [17] of the same substance?
Answer: The MPI was 99.

Question: What about the IC50 [18] of the same substance?
Answer: The IC50 was 38.4 mg/L.

Question: What about the IC80 [18] of the same substance?
Answer: Its IC80 is over 50 mg/L.

Question: What about the MPI [18] of the same substance?
Answer: Its MPI is 56.

Question: What about the IC50 [19] of the same substance?
Answer: The IC50 was over 50 mg/L.

Question: And the IC80 [19]?
Answer: The IC80 was over 50 mg/L.

Question: And the MPI [19]?
Answer: The MPI was 15.

Question: How did the IC50 [1] turn out when N49P9 (antibody) was run?
Answer: Its IC50 is 0.224 mg/L.

Question: And the IC80 [1]?
Answer: The IC80 was 0.863 mg/L.

Question: And the MPI [1]?
Answer: The MPI was 97.

Question: What about the IC50 [2] of the same substance?
Answer: The IC50 was 0.473 mg/L.

Question: And the IC80 [2]?
Answer: Its IC80 is 1.61 mg/L.

Question: And the MPI [2]?
Answer: Its MPI is 100.

Question: What about the IC50 [3] of the same substance?
Answer: Its IC50 is 0.465 mg/L.

Question: And the IC80 [3]?
Answer: The IC80 was 2.43 mg/L.

Question: What about the MPI [3] of the same substance?
Answer: Its MPI is 97.

Question: And the IC50 [4]?
Answer: Its IC50 is 0.132 mg/L.

Question: What about the IC80 [4] of the same substance?
Answer: The IC80 was 0.366 mg/L.

Question: And the MPI [4]?
Answer: The MPI was 100.

Question: And the IC50 [5]?
Answer: Its IC50 is over 50 mg/L.

Question: What about the IC80 [5] of the same substance?
Answer: The IC80 was over 50 mg/L.

Question: What about the MPI [5] of the same substance?
Answer: The MPI was 17.

Question: What about the IC50 [6] of the same substance?
Answer: Its IC50 is 0.152 mg/L.

Question: What about the IC80 [6] of the same substance?
Answer: Its IC80 is 0.801 mg/L.

Question: And the MPI [6]?
Answer: Its MPI is 97.

Question: And the IC50 [7]?
Answer: Its IC50 is over 50 mg/L.

Question: And the IC80 [7]?
Answer: The IC80 was over 50 mg/L.

Question: And the MPI [7]?
Answer: The MPI was 40.

Question: And the IC50 [8]?
Answer: Its IC50 is 0.076 mg/L.

Question: And the IC80 [8]?
Answer: Its IC80 is 0.231 mg/L.

Question: What about the MPI [8] of the same substance?
Answer: The MPI was 100.

Question: And the IC50 [9]?
Answer: Its IC50 is 0.058 mg/L.

Question: What about the IC80 [9] of the same substance?
Answer: The IC80 was 0.165 mg/L.

Question: What about the MPI [9] of the same substance?
Answer: Its MPI is 100.

Question: What about the IC50 [10] of the same substance?
Answer: Its IC50 is 0.036 mg/L.

Question: What about the IC80 [10] of the same substance?
Answer: Its IC80 is 0.123 mg/L.

Question: And the MPI [10]?
Answer: Its MPI is 100.

Question: And the IC50 [11]?
Answer: Its IC50 is 0.352 mg/L.

Question: What about the IC80 [11] of the same substance?
Answer: The IC80 was 1.21 mg/L.

Question: And the MPI [11]?
Answer: Its MPI is 100.

Question: And the IC50 [12]?
Answer: Its IC50 is 0.477 mg/L.

Question: What about the IC80 [12] of the same substance?
Answer: The IC80 was 1.99 mg/L.

Question: And the MPI [12]?
Answer: Its MPI is 100.

Question: What about the IC50 [13] of the same substance?
Answer: The IC50 was 0.08 mg/L.

Question: And the IC80 [13]?
Answer: Its IC80 is 0.294 mg/L.

Question: And the MPI [13]?
Answer: The MPI was 100.

Question: What about the IC50 [14] of the same substance?
Answer: Its IC50 is 0.179 mg/L.

Question: What about the IC80 [14] of the same substance?
Answer: The IC80 was 0.628 mg/L.

Question: And the MPI [14]?
Answer: Its MPI is 100.

Question: And the IC50 [15]?
Answer: The IC50 was 0.419 mg/L.

Question: What about the IC80 [15] of the same substance?
Answer: Its IC80 is 2.19 mg/L.

Question: And the MPI [15]?
Answer: The MPI was 100.

Question: What about the IC50 [16] of the same substance?
Answer: The IC50 was 0.259 mg/L.

Question: What about the IC80 [16] of the same substance?
Answer: Its IC80 is 0.693 mg/L.

Question: And the MPI [16]?
Answer: Its MPI is 100.

Question: What about the IC50 [17] of the same substance?
Answer: The IC50 was 0.036 mg/L.

Question: And the IC80 [17]?
Answer: The IC80 was 0.128 mg/L.

Question: What about the MPI [17] of the same substance?
Answer: The MPI was 100.

Question: And the IC50 [18]?
Answer: The IC50 was 0.083 mg/L.

Question: And the IC80 [18]?
Answer: Its IC80 is 0.339 mg/L.

Question: What about the MPI [18] of the same substance?
Answer: The MPI was 100.

Question: And the IC50 [19]?
Answer: Its IC50 is 0.154 mg/L.

Question: And the IC80 [19]?
Answer: Its IC80 is 0.519 mg/L.

Question: What about the MPI [19] of the same substance?
Answer: The MPI was 99.

Reference: US20230002480A1
